# Measured values published in patent US6903203B2, “Monoclonal antibody to CEA, conjugates comprising said antibody and their therapeutic use” (AstraZeneca UK Ltd., priority 1996, dated 2005).
# T1: CEA (Homo sapiens, UniProt P06731)
# T1 sequence (P06731 35-676): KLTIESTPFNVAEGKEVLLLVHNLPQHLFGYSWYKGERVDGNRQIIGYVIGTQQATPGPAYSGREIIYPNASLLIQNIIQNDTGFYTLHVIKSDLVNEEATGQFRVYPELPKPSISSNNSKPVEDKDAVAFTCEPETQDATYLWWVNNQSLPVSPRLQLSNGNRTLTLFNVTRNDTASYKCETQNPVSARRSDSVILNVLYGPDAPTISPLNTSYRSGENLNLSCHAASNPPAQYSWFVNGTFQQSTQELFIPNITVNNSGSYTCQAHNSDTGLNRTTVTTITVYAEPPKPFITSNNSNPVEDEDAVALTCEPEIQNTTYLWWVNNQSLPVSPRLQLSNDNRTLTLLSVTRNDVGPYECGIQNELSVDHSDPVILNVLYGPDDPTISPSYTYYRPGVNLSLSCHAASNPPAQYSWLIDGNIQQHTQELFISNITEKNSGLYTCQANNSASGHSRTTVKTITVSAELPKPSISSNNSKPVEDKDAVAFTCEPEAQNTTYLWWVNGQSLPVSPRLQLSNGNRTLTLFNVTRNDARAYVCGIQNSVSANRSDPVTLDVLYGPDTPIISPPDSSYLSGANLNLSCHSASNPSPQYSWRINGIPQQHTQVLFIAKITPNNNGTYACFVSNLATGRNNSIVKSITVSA
# Key:
# CEA = target: T1, CEA; experiment: CEA binding ELISA; settings: media of NS0 clones
# Description: For the CEA ELISA each well of a 96 well immunoplate (NUNC MAXISORB™) was coated with 50 ng CEA in 50 mM carbonate/bicarbonate coating buffer pH9.6 (buffer capsules—Sigma C3041) and incubated at 4° C. overnight. The plate was washed three times with PBS+0.05% Tween 20 and then blocked 150 μl per well of 1% BSA in PBS +0.05% Tween 20 for 1 hour at room temperature. The plate was washed as previously described, 100 μl of test sample added per well and incubated at room temperature for 2 hours. Again the plate was washed three times with PBS+0.05% Tween 20, 100 μl per well of a 1/500 dilution of HRPO-labelled goat anti-human kappa antibody (Sigma A 7164) was added, in 1% BSA in PBS-Tween 20 and incubated at room temperature on a rocking platform for at least 1 hour. The plate was washed as before and then once more with PBS. To detect binding add 100 μl per well developing solution (one capsule of phosphate-citrate buffer—Sigma P4922—dissolved in 100 mls H2O to which is added one 30 mg tablet o-phenylenediamine dihydrochloride—Sigma P8412) and incubated for up to 15 minutes. The reaction was stopped by adding 75 μl 2M H2SO4, and absorbance read at 490 nm.
# Media from wells containing single viable clones was taken for testing and replaced with fresh media (containing G418). […]
# prostate tumours = experiment: Three-stage indirect immunohistology on frozen sections, prostate tumours; type: binding, human; settings: prostate tumours (n=3), any tumour; 2 μg/ml
# Description: (§1) To assess selectivity, many human normal and tumour tissues have been screened for reactivity with the antibody 806.077, using sensitive three-stage indirect immunohistology on acetone-fixed, frozen cryostat sections.
# (§2) Immunohistology was carried out on sections of human tissue obtained either at resection surgery or at post mortem. To preserve optimal morphology and antigenicity, tissues were obtained as fresh as possible, cut into small pieces (about 0.5 cm^3) and flash frozen in liquid nitrogen prior to storage at −80° C. Sections of tissue (6μ) were cut on a cryostat, mounted on polylysine coated slides (e.g. blue TECHMATE™ slides, Dako) and fixed in ice-cold acetone for 2 minutes before being wrapped in foil and stored at −80° C.
# (§3) Slides were allowed to defrost at room temperature before being unwrapped from the foil immediately prior to use. Each section was outlined with a diamond marker, and to each section was added either 100 μl 806.077 antibody diluted to 2 μg/ml in Tris-buffered Saline (TBS), or 100 μl CEA/NCA reactive control (A5B7 antibody) at 2 μg/ml in TBS, or 100 μl MOPC isotype control (Sigma Chemical Company, St. Louis, U.S.A., Cat. No. M 9269) at 2 μg/ml in TBS, or relevant positive control such as LP34 (Dako). All subsequent incubations were carried out at room temperature for 30 minutes in a humidified chamber: all wash steps were in TBS with 2 changes. […]
# [1] = tested on: Post mortem normal tissues; experiment: Three-stage indirect immunohistology on frozen sections, post mortem normal tissues; type: binding, human; settings: cerebellum, mid-brain, cerebrum, smooth muscle, liver, kidney, aorta, stomach, heart; 2 μg/ml
# Description: as §1, §2, §3
# Lung (NCA reactivity) = experiment: Three-stage indirect immunohistology on frozen sections, normal lung; type: binding, human; parameters: key to degree of binding (staining score): +++ (strong)=antibody binding to >75% tumour cells; ++ (moderate)=antibody binding to 50%-75% tumour cells; + (weak)=antibody binding to 25%-50% tumour cells; +/− (minimal)=non-focal antibody binding to a small area of tumour cells; −=no staining
# Description: as §1, §2
# (§4) Slides were allowed to defrost at room temperature before being unwrapped from the foil immediately prior to use. […] Louis, U.S.A., Cat. No. M 9269) at 2 μg/ml in TBS, or relevant positive control such as LP34 (Dako). All subsequent incubations were carried out at room temperature for 30 minutes in a humidified chamber: all wash steps were in TBS with 2 changes. After incubation, the slides were washed and 100 μl of second antibody reagent, comprising 1/50 rabbit anti-mouse immunoglobulins conjugated to horse radish peroxidase (Dako Patts) and ⅕ normal human serum (Sigma) in TBS was added to each section.
# The slides were again incubated and washed in TBS. A final detecting antibody, 100 μl swine anti-rabbit immunoglobulin conjugated to horse radish peroxidase ( 1/50 dilution with ⅕ normal human serum in TBS), was added to each section, incubated and washed thoroughly. DAB substrate (3,3′-diaminobenzidine tetrahydrochloride) was prepared using 1 DAB tablet (Sigma) with hydrogen peroxide (17 μl) in TBS (17 ml), and added dropwise through a fast filter paper (e.g. Whatman Number 4). After 3 minutes incubation the excess DAB was tapped off the slides and the slides were washed in TBS. […]
# [2] = tested on: Spleen (granulocyte/NCA reactivity); experiment: Three-stage indirect immunohistology on frozen sections, normal spleen; type: binding, human
# Description: as §1, §2, §3
# Ovary tumours = experiment: Three-stage indirect immunohistology on frozen sections, ovary tumours; type: binding, human; settings: Ovary tumours (n=3), any tumour; 2 μg/ml
# Description: as §1, §2, §3
# NSCLC tumours = experiment: Three-stage indirect immunohistology on frozen sections, NSCLC tumours; type: binding, human; settings: NSCLC tumours (n=6), score seen in 1/6 tumours; 2 μg/ml
# Description: as §1, §2, §3
# Breast tumours = experiment: Three-stage indirect immunohistology on frozen sections, breast tumours; type: binding, human; parameters: key: +++ (strong)=antibody binding to >75% tumour cells; ++ (moderate)=antibody binding to 50%-75% tumour cells; + (weak)=antibody binding to 25%-50% tumour cells; +/− (minimal)=non-focal antibody binding to a small area of tumour cells; −=no staining; settings: Breast tumours (n=6), score seen in 2/6 tumours; 2 μg/ml
# Description: as §1, §2, §3
# Colon tumours = experiment: Three-stage indirect immunohistology on frozen sections, colon tumours; type: binding, human; settings: tissue culture supernatant neat and diluted 1:10
# Description: as §1, §2, §4
# The slides were again incubated and washed in TBS. […]
antibody binding to CEA in an ELISA (CEA),"degree of binding (staining score) (Lung (NCA reactivity); normal lung (n=14), score seen in 10/14 tissues, 2 μg/ml)","binding compared to A5B7 (Lung (NCA reactivity); normal lung, tissue culture supernatant neat and diluted 1:10)","binding compared to A5B7 ([2]; normal spleen, tissue culture supernatant neat and diluted 1:10)",degree of binding (staining score) (Breast tumours),binding compared to A5B7 (Colon tumours),Molecule,staining (prostate tumours),reactivity [1],staining of normal lung tissues (summary statement) (Lung (NCA reactivity); 4/14 normal lung tissues tested),"staining ([2]; spleen (n=6), any of the tissues tested, 2 μg/ml)",staining (Ovary tumours),degree of binding (staining score) (NSCLC tumours)
positive,,,,,,"Example 75: [A248S,G251T,D253K]HCPB fused via (GGGS)3 linker to N-terminus of humanised 806.077 Fd (HuVH1-HuIgG3), with HuVK4-HuCK light chain (antibody) heavy: HHGGEHFEGEKVFRVNVEDENHINIIRELASTTQIDFWKPDSVTQIKPHSTVDFRVKAEDTVTVENVLKQNELQYKVLISNLRNVVEAQFDSRVRATGHSYEKYNKWETIEAWTQQVATENPALISRSVIGTTFEGRAIYLLKVGKAGQNKPAIFMDCGFHAREWISPAFCQWFVREAVRTYGREIQVTELLDKLDFYVLPVLNIDGYIYTWTKSRFWRKTRSTHTGSSCIGTDPNRNFDAGWCEIGASRNPCDETYCGPAAESEKETKALADFIRNKLSSIKAYLTIHSYSQMMIYPYSYAYKLGENNAELNALAKATVKELASLHGTKYTYGPGATTIYPSAGTSKDWAYDQGIRYSFTFELRDTGRYGFLLPESQIRATCEETFLAIKYVASYVLEHLYGGGSGGGSGGGSEVQLQQSGPGLVRPSQTLSLTCTASGFNIKDNYMHWVRQPPGRGLEWIGWIDPENGDTEYAPKFRGRVTMLADTSKNQFSLRLSSVTAADTAVYYCHVLIYAGYLAMDYWGQGTLVTVSSASTKGPSVFPLAPCSRSTSGGTAALGCLVKDYFPEPVTVSWNSGALTSGVHTFPAVLQSSGLYSLSSVVTVPSSSLGTQTYTCNVNHKPSNTKVDKRVELKTPLGDTTHTCPRCPEPKSCDTPPPCPRCPEPKSCDTPPPCPRCPEPKSCDTPPPCPRCPAPELLGG light: DIQMTQSPSSLSASVGDRVTITCSASSSVTYMHWYQQKPGKAPKLWIYSTSNLASGVPSRFSGSGSGTDYTFTISSLQPEDIATYYCQQRSTYPLTFGQGTKLEIKRTVAAPSVFIFPPSDEQLKSGTASVVCLLNNFYPREAKVQWKVDNALQSGNSQESVTEQDSKDSTYSLSSTLTLSKADYEKHKVYACEVTHQGLSSPVTKSFNRGEC",,,,,,
,−,much reduced binding,much reduced binding,+/−,equivalent binding,"806.077 antibody: novel murine anti-CEA monoclonal antibody from hybridoma 806.077, ECACC deposit no. 96022936 (antibody, V domains shown) VH: EVQLQQSGAELVRSGASVKLSCTASGFNIKDNYMHWVKQRPEQGLEWIAWIDPENGDTEYAPKFRGKATLTADSSSNTAYLHLSSLTSEDTAVYYCHVLIYAGYLAMDYWGQGTSVAVSS VL: DIELTQSPAIMSASPGEKVTITCSASSSVTYMHWFQQKPGTSPKLWIYSTSNLASGVPARFSGSGSGTSYSLTISRMEAEDAATYYCQQRSTYPLTFGAGTKLELKRA",No staining,negative,minimal staining,No staining,No staining,++ (++ (moderate)=antibody binding to 50%-75% tumour cells)
